Ends that are not written are not given here.
Biological target: T1, Base Leucine Zipper (B-LZ)
T1 construct: In FRET it carried an AF555 label; In the cell and EV assays it was conjugated to the surface through Sulfo-SMCC; also called SynZip2
Experiment: titration ELISA on coated B-LZ, anti-FLAG-HRP detection
Procedure: Enzyme-linked immunosorbent assay (ELISA). Nunc MaxiSorp 96-well plates were coated with Base-Leucine Zipper (B-LZ) at 2.5 μg/mL and incubated overnight at 4° C. The plate was thoroughly washed with 0.1% TBS-Tween (TBST). The wells were washed with 0.1% PBST and then blocked with BSA blocking buffer for 1 h at room temperature before incubation with complementary leucine zipper (C-LZ) concentrations ranging from 1 μM to […] at room temperature for 2 hours before washing. Washes were followed by the addition of 100 μL of anti-FLAG horseradish peroxidase (HRP)-linked monoclonal antibody (1:10,000 mAb, #A8592, Sigma Aldrich, St. Louis, MO) for 1 h at room temperature with rocking. The wells were washed with 0.1% PBST followed by the addition of TMB-ELISA substrate. After a 10 min incubation, 2 M H₂SO₄ was added to stop the reaction. The absorbance was measured at 450 nm and 570 nm with a SpectraMax M5 plate reader (Molecular Devices, Sunnyvale, CA).
The proteins were then expressed for in vitro testing. Using titration ELISA, the binding affinity of each sequence was tested for its affinity to the base leucine zipper (B-LZ). […] This decision was based on its high binding affinity and high expression levels in E. coli. […]

B1: NIS1 (high-affinity complementary leucine zipper, HiA C-LZ) (designed binder)
chain: NLVAQLENEVASLENENETLKNKNLQKKNLIAYLEQEIANLRKKIEG
modifications: also: purification and detection tags and conjugation cysteine, position not given here
notes: NIS1 is a mutant of C-LZ 10 nM; not shown: purification and detection tags and conjugation cysteine (Ni-NTA purified, anti-FLAG detected, thiol conjugated); letter
fold improvement in B-LZ binding compared with C-LZ 10 nM: 5 fold

— US20260124245A1 (UNIVERSITY OF NORTH CAROLINA AT CHAPEL HILL, published 2026)
